Laboratory results taken from patent US20220348648A1 (Memorial Sloan Kettering, published 2022).

T1: endogenous human DLL3 on NCI-H82 cells (human, UniProt Q9NYJ7 27-618)
T1 sequence (looked up): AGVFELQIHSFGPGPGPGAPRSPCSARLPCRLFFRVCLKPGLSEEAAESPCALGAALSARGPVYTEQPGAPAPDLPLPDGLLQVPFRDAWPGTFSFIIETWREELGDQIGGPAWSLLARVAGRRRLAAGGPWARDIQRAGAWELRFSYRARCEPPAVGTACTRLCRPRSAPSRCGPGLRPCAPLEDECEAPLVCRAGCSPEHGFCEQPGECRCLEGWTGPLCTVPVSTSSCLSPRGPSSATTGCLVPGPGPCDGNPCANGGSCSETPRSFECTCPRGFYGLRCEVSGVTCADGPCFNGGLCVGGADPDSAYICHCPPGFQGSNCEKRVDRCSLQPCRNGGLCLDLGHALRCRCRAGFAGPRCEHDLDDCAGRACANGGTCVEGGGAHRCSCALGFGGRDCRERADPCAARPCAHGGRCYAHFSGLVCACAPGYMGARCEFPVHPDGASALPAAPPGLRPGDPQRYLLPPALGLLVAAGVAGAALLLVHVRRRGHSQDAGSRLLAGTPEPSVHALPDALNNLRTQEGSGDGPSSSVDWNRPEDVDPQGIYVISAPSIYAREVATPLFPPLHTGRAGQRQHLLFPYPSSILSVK

T2: DLL1 (UniProt O00548 18-545, limits assumed)
T2 sequence (looked up): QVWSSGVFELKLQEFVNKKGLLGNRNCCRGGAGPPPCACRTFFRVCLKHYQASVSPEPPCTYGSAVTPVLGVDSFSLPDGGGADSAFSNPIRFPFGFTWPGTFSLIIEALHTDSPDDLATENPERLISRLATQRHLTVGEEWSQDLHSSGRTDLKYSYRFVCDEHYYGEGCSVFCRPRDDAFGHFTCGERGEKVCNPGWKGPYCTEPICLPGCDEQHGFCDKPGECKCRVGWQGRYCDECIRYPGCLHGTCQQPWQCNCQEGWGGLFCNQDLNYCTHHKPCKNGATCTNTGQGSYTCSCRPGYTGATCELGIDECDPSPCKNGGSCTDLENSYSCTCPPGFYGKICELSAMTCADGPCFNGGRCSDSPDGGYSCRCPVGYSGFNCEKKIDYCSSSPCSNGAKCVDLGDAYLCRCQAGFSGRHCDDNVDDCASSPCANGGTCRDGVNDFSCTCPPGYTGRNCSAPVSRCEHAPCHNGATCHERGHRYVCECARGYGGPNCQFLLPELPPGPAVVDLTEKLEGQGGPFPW

T3: full-length human DLL3 on transfected HEK293 cells (human, UniProt Q9NYJ7 27-618)
T3 construct: also called 293 hDLL3
T3 sequence: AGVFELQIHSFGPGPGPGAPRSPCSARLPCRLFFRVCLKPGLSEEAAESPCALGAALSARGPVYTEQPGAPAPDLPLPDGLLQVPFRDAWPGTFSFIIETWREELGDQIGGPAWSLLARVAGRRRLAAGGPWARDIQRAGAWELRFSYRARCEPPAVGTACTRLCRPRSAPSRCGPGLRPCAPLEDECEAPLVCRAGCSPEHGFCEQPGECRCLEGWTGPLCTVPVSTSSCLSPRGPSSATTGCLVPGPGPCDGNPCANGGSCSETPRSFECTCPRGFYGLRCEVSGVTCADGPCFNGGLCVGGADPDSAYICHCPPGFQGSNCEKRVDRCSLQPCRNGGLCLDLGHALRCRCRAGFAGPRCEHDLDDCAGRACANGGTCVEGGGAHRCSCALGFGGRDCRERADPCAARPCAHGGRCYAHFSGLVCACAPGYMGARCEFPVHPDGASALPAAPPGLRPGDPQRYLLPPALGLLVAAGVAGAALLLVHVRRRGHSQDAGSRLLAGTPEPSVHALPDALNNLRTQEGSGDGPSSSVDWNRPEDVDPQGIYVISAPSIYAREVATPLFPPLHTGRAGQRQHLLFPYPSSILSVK

T4: full-length mouse DLL3 on transfected HEK293 cells (mouse, UniProt O88516 33-584)
T4 construct: also called 293 mDLL3
T4 sequence: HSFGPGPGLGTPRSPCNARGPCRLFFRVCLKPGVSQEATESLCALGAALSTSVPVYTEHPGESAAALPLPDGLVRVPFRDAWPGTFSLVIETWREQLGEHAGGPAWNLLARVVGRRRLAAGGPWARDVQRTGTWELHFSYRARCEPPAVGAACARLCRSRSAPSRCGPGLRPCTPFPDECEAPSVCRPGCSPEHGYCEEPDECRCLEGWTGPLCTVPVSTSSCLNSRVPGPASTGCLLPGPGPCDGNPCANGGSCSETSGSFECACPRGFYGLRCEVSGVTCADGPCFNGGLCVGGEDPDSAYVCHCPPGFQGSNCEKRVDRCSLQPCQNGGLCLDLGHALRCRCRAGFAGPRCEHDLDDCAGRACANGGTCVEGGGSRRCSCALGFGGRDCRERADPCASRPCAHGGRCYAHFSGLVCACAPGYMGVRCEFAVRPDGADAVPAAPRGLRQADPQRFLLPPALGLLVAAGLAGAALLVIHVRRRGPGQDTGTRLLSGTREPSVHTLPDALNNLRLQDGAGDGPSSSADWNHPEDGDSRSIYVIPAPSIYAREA

T5: full-length cynomologus DLL3 on transfected HEK293 cells (cynomologus, UniProt A0A2K5WSR1 27-585)
T5 construct: also called 293 cyno DLL3
T5 sequence: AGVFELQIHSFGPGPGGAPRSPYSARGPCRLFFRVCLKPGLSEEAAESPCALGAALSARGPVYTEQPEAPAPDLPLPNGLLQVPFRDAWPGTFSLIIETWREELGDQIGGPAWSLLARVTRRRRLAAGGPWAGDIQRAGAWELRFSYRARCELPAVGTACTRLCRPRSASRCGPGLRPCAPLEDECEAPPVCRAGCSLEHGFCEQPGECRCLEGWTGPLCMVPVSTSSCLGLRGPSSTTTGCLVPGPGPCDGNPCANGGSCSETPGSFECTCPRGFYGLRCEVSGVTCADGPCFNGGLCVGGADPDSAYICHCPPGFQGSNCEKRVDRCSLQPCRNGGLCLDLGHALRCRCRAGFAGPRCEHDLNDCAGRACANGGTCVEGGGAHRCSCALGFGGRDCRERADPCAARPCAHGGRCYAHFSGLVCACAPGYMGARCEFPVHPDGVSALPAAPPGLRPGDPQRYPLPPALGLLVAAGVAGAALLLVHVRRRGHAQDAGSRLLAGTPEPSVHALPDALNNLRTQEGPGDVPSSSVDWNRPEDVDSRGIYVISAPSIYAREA

B1: 6-G23-F (antibody, V domains shown)
VH: QVQLVQSGAEVKKPGASVKVSCKASGYTFTSYYIHWVRQAPGQGLEWMGIIDPSDGSTNYAQKFQGRVTMTRDTSTSTVYMELSSLRSEDTAVYYCARDREYNYYGLDVWGQGTTVTVSS
VL: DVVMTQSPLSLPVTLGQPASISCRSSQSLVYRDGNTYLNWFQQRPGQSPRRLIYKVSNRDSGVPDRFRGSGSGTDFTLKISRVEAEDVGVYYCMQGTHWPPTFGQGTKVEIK
notes: Purified hybridoma monoclonal from Ablexis AlivaMAb Kappa mice (human immunoglobulin repertoire); the antibody was captured on anti-mouse Fc sensors and detected with anti-mouse IgG / anti-mouse IgG1 reagents; also called 6-G23-F (10 µg/ml)
B2: 7-I1-B (antibody, V domains shown)
VH: EVQLVESGGGLVKPGGSLRLSCAASGFTFSNTWMSWVRQAPGKGLEWVGRIKSKSDGGTTDYAAPVKGRFTISRDDSKNTLYLQMNSLKTEDTAVYYCTQYYWNSFDYWGQGTLVTVSS
VL: not shown
notes: Purified hybridoma monoclonal from Ablexis AlivaMAb Kappa mice; the antibody was captured on anti-mouse Fc sensors and detected with anti-mouse IgG / anti-mouse IgG1 reagents; also called 7-I1-B (10 µg/ml)
B3: 10-O18-A (antibody, V domains shown)
VH: QVQLQESGPGLVKPSETLSLTCTVSGGSINSYYWSWIRQPPGKGLEWIGYIFYSGITNYNPSLKSRVTISLDTSKNQFSLKLSSVTAADTAVYYCARIGVAGFYFDYWGQGTLVTVSS
VL: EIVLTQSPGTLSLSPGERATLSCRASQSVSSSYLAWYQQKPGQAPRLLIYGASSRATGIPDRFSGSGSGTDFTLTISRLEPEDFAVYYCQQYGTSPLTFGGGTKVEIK
notes: Purified hybridoma monoclonal from Ablexis AlivaMAb Kappa mice; the antibody was captured on anti-mouse Fc sensors and detected with anti-mouse IgG / anti-mouse IgG1 reagents; also called 10-018-A; 10-O18-A (10 µg/ml)
B4: 2-C8-A (antibody, V domains shown)
VH: EVQLVESGGGLVQPGGSQRLSCAASGFTFSSYWMNWVRQAPGKGLEWVANIKEDGSEKYYVDSVKGRFTISRDNAKNSLYLQMNSLRAEDTAVYYCARDPGWAPFDYWGQGTLVTVSS
VL: DIQMSQSPSSLSASVGDRVTITCRASQGISNYLAWFQQKPGKAPKSLIYAASSLQSGVPSKFSGSGSGTDFTLAISSLQPEDFATYYCQQYNSFPYTFGQGTTLEIK
notes: Purified hybridoma monoclonal from Ablexis AlivaMAb Kappa mice; the antibody was captured on anti-mouse Fc sensors and detected with anti-mouse IgG / anti-mouse IgG1 reagents; also called 2-C8-A (10 µg/ml)

Assays:
[1] = biological target: T1, endogenous human DLL3 on NCI-H82 cells; assay: cell-based or functional assay
[2] = biological target: T1, endogenous human DLL3 on NCI-H82 cells; assay: cell-based or functional assay; remark: listed apart in the source
[3] = biological target: T1, endogenous human DLL3 on NCI-H82 cells; assay: cell-based or functional assay; remark: listed apart in the source
DLL1 = biological target: T2, DLL1; assay: FIG. 7; assay not described
DLL4 = DLL4 (UniProt Q9NR61 27-524, limits assumed); assay: FIG. 7; assay not described
DLL4, sequence (Q9NR61 27-524 limits assumed): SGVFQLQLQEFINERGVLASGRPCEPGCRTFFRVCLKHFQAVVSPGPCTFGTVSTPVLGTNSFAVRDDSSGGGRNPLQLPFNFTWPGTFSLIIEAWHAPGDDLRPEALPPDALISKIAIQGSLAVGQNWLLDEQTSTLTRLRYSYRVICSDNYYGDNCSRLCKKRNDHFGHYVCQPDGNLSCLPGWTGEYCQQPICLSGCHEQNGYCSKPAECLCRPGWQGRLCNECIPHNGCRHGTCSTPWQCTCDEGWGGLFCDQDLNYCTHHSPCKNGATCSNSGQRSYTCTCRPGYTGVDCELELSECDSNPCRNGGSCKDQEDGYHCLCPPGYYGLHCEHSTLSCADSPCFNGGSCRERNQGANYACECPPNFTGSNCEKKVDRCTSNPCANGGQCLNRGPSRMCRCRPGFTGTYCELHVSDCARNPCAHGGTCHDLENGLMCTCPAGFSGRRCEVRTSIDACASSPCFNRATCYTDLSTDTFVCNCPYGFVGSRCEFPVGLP

[4] = biological target: T1, endogenous human DLL3 on NCI-H82 cells; assay: flow cytometry, 10 µg/ml antibody on NCI-H82 cells (endogenous DLL3)
Description: (§1) The four monoclonal antibodies (6-G23-F, 2-C8-A, 7-I1-B and 10-O18-A) were tested for their ability to bind to mouse and cynomologus DLL3 as well as endogenous human DLL3 by flow cytometry. For this purpose, HEK293 cells were transfected with plasmid DNA encoding full-length human, mouse or cynomologus DLL3 and used in the experiment. Briefly 10⁶ transfected HEK293 cells or NCI-H82 primary cells were added in FACS buffer PBS 0.5% BSA to the wells of a 96 well U bottom plate and purified monoclonal added to 10 μg/ml. After 30 minutes incubation at 4° C. the cells were washed 3 times in FACS buffer and incubated with a PE labelled F(ab)2 anti-mouse IgG H and L 2nd stage. After another 30 minutes incubation at 4° C. the cells were washed three times in FACS buffer and analyzed on the flow cytometer. Data are presented at the ratio of the Mean Fluorescent Intensity for the monoclonal divided by the background staining with the 2nd stage. As shown in the Table below, all of the monoclonal antibodies cross reacted with cynomologus DLL3 and detected endogenous DLL3 on NCI H82 cells but only 6-G23-F and 7-I1-B bound to mouse DLL3.

[5] = biological target: T3, full-length human DLL3 on transfected …; assay: flow cytometry, 10 µg/ml antibody on HEK293 cells transfected with full-length human DLL3
Description: as §1

[6] = biological target: T4, full-length mouse DLL3 on transfected …; assay: flow cytometry, 10 µg/ml antibody on HEK293 cells transfected with full-length mouse DLL3
Description: as §1

[7] = biological target: T5, full-length cynomologus DLL3 on …; assay: flow cytometry, 10 µg/ml antibody on HEK293 cells transfected with full-length cynomologus DLL3
Description: as §1

Binder | MFI Ratio (4° C. / 37° C. staining, 4/37 internalization assay on NCI-H82 cells) [1] [ratio] | Dy light Dy658 Fluorescence (% of the Control Reference Monoclonal Antibody), quenching internalization assay on NCI-H82 cells [2] | FAB ZAP % SC16 Max Killing (saporin Fab ZAP cytotoxicity on NCI-H82 cells) [3] [% SC16 Max Killing] | binding result (DLL1) | binding result (DLL4) | ratio of the Mean Fluorescent Intensity for the monoclonal divided by the background staining with the 2nd stage [4] [ratio] | ratio of the Mean Fluorescent Intensity for the monoclonal divided by the background staining with the 2nd stage [5] [ratio] | ratio of the Mean Fluorescent Intensity for the monoclonal divided by the background staining with the 2nd stage [6] [ratio] | ratio of the Mean Fluorescent Intensity for the monoclonal divided by the background staining with the 2nd stage [7] [ratio]
B1 | 1.67 | 76.5 % of the Control Reference Monoclonal Antibody | 94 | no binding | no binding | 11.1 | 6.33 | 3.97 | 13.1
B2 | 1.68 | 70.1 % of the Control Reference Monoclonal Antibody | 97 | no binding | – | 19.2 | 9.74 | 4.7 | 18.7
B3 | 1.56 | – | – | no binding | no binding | 9.4 | 4.74 | 0.99 | 9.85
B4 | 1.76 | 62.9 % of the Control Reference Monoclonal Antibody | 89 | no binding | no binding | 11.9 | 7.71 | 1.5 | 15
